For 1 substance, luciferase activity, triple transfection of chimera H, I and the pUHC13-3 reporter into 293 cells results are on record in US20030162168A1.

The target in the assay is chimera H (HCV NS3 to NS5B-P6' fused to tTA, NS3 active site mutant S1165A, unmodified NS5A/5B junction) (Hepatitis C virus 1b (human serum isolate)). As to the kind of experiment: cell-based or functional assay.

Take “chimera I (HCV NS3 to NS5B-P6' fused to tTA, NS5A/5B cleavage site P1-P1' mutated to R-P; source of active NS3 protease)”: the luciferase activity, triple transfection of chimera H, I and the pUHC13-3 reporter into 293 cells came out at 2e+06 cps.
